Reference: the RNAGym collection of RNA variant scans (doi:10.1073/pnas.2313332121)

B1: TPR t1 (parent)
chain: GACCAAUCUGCCCUCAGAGCUCGAGAACAUCUUCGGAUGCAGAGGAGGCAGGCUUCGGUGGCGCGAUAGCGCCAACGUCCUCAACCUCCAAUGCAUCCCACCACAUGAUGAUGCCUGAAGAGCCUUGGUUUUUUG

Variants of: B1
Assay: polymerase ribozyme fitness, log enrichment relative to wild type (log ratio); higher = more active; in vitro selection for triplet polymerase activity
In short: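 In triplicate, a single round of in vitro selection was run on each mutant library, PCR-built and transcribed, covering one subunit of a heterodimeric triplet polymerase ribozyme. Frozen incubation at −7 °C followed annealing with a biotinylated primer, partner subunit and triplets, and extended constructs were then gel-excised, streptavidin-captured and taken through RT-PCR. Fitness is the logarithm of genotype enrichment over wild-type enrichment, from inverse-variance-weighted replicate averages of Illumina-sequenced inputs and outputs. […] only genotypes with ≥10 input reads and ≥1 read per output were kept.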

Row | Variant | polymerase ribozyme fitness (log ratio)
1 | GACCAAUCUGCCCUCACAGCUCGAGAACAUCUUCGGAUGCAGAGGAGGCAGGCUUCGGUGUCGCGAUAGCGCCAACGUCCUCAACCUCCAAUGCAUCCCACCACAUGAUGAUGCCUGAAGAGCCUUGGUUUUUUG [G17C G61U] | -3.71
2 | GACCAAUCUGCCCUCACAGCUCGAGAACAUCUUCGGAUGCAGAGGAGGCAGGCUUCGGUGUCGCGAUAGCGCCAACGUCCUCAACCUCCAAUUCAUCCCACCACAUGAUGAUGACUGAAGAGCCUUUGUUUUUUG [G17C G61U G93U C114A G127U] | -6
3 | GACCAAUCUGCCCUCACAGCUCGAGAACAUCUUCGGAUGCAGAGGAGGCAGGCUUCGGUGGCACGAUAGCGCCAACUUCCACAACCUCCAAUGCAUCCCACCACAUGAUGAUGCCUGAGGCGCCUUGGUUUUUUG [G17C G63A G77U U81A A119G A121C] | -5.23
4 | GACCAAUCUGCCCUCACAGCUCGAGAACAUCUUCGGAUGCAGAGGAGGCAGGCUUCGGUGGCGCGAUAUCGCCAACGUCCUCAACCUCCAAUGCAUCCCACCACAUGAUGAUGCCUGAAGAACCUUGGUUUUUUG [G17C G69U G122A] | -2.46
5 | GACCAAUCUGCCCUCACAGCUCGAGAACAUCUUCGGAUGCAGAGGAGGCAGGCUUCGGUGGCGCGAUAGCGCCAACGUCCUCAACCUCCAAUGCAUCCCACCACAUGAUGAUGCCUGAAAAGCCUUGGUUUUUUG [G17C G120A] | -3.31
6 | GACCAAUCUGCCCUCAUUGCUCGAGAACAUCUUCCGAUGCAGAGGAGGCAGGCUUCGGUGGCGCGAUAGCGGCAACUUCCUCAACCUCCAAUGCAUCCCACCUCAUGAUGAGGCCUGAAGAGCCUUGGUUUUUUG [G17U A18U G35C C72G G77U A103U U112G] | -6.95
7 | GACCAAUCUGCCCUCAUUGCUCGAGAACAUCUUCGGAUUCAGAGGAGGCAGGCUUCGGUGGCGCGAUAGCGCCAACGUCCUCAACCUCCAAUGCAUCCCACCACAUGAUGAUGCCUGAAGAGACUUGGUUUUUUG [G17U A18U G39U C123A] | -4.71
8 | GACCAAUCUGCCCUCAUAGCUCGGGGACAUCUUCGGAUGCAGAGGAGGCAGGCUUCGGUGGCGCGAUAGCGCCAACGUCCUCAACCUCCAAUGCAUCCCACCACAUGAUGAAGCCUGAAGAGCCUUGGUUUUUUG [G17U A24G A26G U112A] | -6.66
9 | GACCAAUCUGCCCUCAUAGCUCGAGAACAUCUUCGGCUGCAGAGGAGGCAGGCUUCGGUGGCGCGAUAGCGCCAACGUCCUCAACCUCCAAUGCAUCCCACCACAUGAUGAUGCCUGAAGAGCCUUGGUUUUUUG [G17U A37C] | -2.42
10 | GACCAAUCUGCCCUCAUAGCUCGAGAACAUCUUCGGUUGCAGAGGAGGCAGGCUUCGGUGGCGCGAUAGCGCCAACGUCCUCAACCUCCAAUGCAUCCCACCACAUGAUGAUGCCUGAAGAGCCUUGGUUUUUUG [G17U A37U] | -2.44
11 | GACCAAUCUGCCCUCAUAGCUCGAGAACAUCUUCGGAUGCAGCGGAGGCAGGCUUCGGGGGGGCGAUAGCGCCAGCGUCCUCAACCUCCAAUGCAUCCCACCACAUGAUGAUGCUUGAAGAGCGUUGGUUUUUUG [G17U A43C U59G C62G A75G C115U C124G] | -5.23
12 | GACCAAUCUGCCCUCAUAGCUCGAGAACAUCUUCGGAUGCAGUGGAGUCAGGCUUCGGUGGCGCGAUAGCGCCGACGUCCUCAACCUCCAAUGCAUCCCACCACAUGAUGAUGCCUGAAGAGCCUUGGUUUUUUG [G17U A43U G48U A74G] | -3.04
13 | GACCAAUCUGCCCUCAUAGCUCGAGAACAUCUUCGGAUGCAGAGGAGGCAGGCUUCGGUGGCGCGAUAGCGCCUACGUCCUCAACCUCCAAUGCAUCCCACCACAUGAUGAUGCCUGAAGAGCCUUGGUUUUUUG [G17U A74U] | -3.16
14 | GACCAAUCUGCCCUCAUAGCUCGAGAACAUCUUCGGAUGCAGAGGAGGCAGGCUUCGGUGGCGCGAUAGCGCCAACGUCCUCAACCUCCAAUGCAUCCCACCACCUGAAGAUGCCUGAAGAGCAUUGGUUUUUUG [G17U A105C U109A C124A] | -5.37
15 | GACCAAUCUGCCCUCAUAGCUCGAGAACAUCUUAGGAUGCAGAGGAGGCAGGCUUCGGUGGCGCGAUAGCGCCAACGUCCUCAACCUCCAAUGCAUCCCACCACAUGAUGAUGCCUGAAGAGCCUUGGUUUUUUG [G17U C34A] | -3.65
16 | GACCAAUCUGCCCUCAUAGCUCGAGAACAUCUUCGGAUGAAAAGGAGGAAGGCUUCGGUGGCGCGAUAGCGCCAACGUCCUCAACCUCCAAUGCAUCCCACCACAUGAUGAUGCCUGAAGAGCCUUGGUUUUUUG [G17U C40A G42A C49A] | -6.46
17 | GACCAAUCUGCCCUCAUAGCUCGAGAACAUCUUCGGAUGGAGAGGAGGCAGGCUUCGGUGGCGCGAUAGCGCCAACGUCCUCAACCUCCGAUGCUUCCCACCACAUGAUGAUGCGUGAAGAGCCUUGGUUUUUUG [G17U C40G A90G A95U C115G] | -3.65
18 | GACCAAUCUGCCCUCAUAGCUCGAGAACAUCUUCGGAUGCAGAGGAGGUAGGCUUCGGUGGCGCGAUAGCGCCAACGUCCUCAACCUCCAAUGCAUCCCACCACAUGAUGAUGCCUGAAGAGCCUUGGUUUUUUG [G17U C49U] | -2.42
19 | GACCAAUCUGCCCUCAUAGCUCGAGAACAUCUUCGGAUGCAGAGGAGGCAGGCUUGGGUGGCGCGAUAGCGCCAACGUCCUCAACCUCCAAUGCAUCCCACCACAUGAUGAUACCUGAAGAGCCUUGGUUUUUUG [G17U C56G G113A] | -5.78
20 | GACCAAUCUGCCCUCAUAGCUCGAGAACAUCUUCGGAUGCAGAGGAGGCAGGCUUCGGUGGGGCGAUAGCGCCAACGUCCUCAACCUCCAAUGCAUCCCACCACAUGAUGAUGCCUGAAGAGCCUUGGUUUUUUG [G17U C62G] | -3.93
21 | GACCAAUCUGCCCUCAUAGCUCGAGAACAUCUUCGGAUGCAGAGGAGGCAGGCUUCGGUGGCGCGAUAGUGCCAACGUCCUCAACCUCCAAUGCAUCCCACCACAUGAUGAUGCCUGAAGAGCCUUGGUUUUUUG [G17U C70U] | -3.3
